The values below come from publication PMC9287719 (2022).

The IC50 is the midpoint of a concentration-inhibition curve.

Where two headings read alike, the source gives them in different places.

Experiment [1] has as its target Recombinant FcγRIIIa (F158) with C-terminus Biotin (human, UniProt P08637 17-208, C-terminus Biotin).
Experiment [2] has as its target T1, Recombinant FcγRIIa (H131) with C-terminus Biotin (human, UniProt P12318 34-217, C-terminus Biotin).
T1 chain: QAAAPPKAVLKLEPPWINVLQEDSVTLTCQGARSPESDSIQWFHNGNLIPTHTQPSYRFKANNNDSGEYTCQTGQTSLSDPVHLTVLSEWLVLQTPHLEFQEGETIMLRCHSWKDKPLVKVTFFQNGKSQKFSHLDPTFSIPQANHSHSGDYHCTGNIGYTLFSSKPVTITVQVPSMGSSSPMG

The target of experiment [3] is T2, Recombinant FcγRIIa (R131) with C-terminus Biotin (human, UniProt P12318, C-terminus Biotin).
T2 chain: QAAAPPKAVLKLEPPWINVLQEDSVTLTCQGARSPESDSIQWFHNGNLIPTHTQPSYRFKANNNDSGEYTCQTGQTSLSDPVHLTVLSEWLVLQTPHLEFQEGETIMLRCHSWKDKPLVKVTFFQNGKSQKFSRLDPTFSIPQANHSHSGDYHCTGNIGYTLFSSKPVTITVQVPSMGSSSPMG

Experiment [4] has as its target T3, Recombinant FcγRIIIa (V158) with C-terminus Biotin (human, UniProt P08637, C-terminus Biotin).
Experiment [5] addresses T4, Recombinant FcγRIIb with C-terminus Biotin (human, UniProt P31994 43-217, C-terminus Biotin).
T4 chain: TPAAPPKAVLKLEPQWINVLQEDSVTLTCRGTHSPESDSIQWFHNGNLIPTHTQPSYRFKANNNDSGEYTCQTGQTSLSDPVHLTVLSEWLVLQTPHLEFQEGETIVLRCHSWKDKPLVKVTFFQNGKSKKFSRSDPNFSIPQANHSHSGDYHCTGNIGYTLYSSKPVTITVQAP

Experiment [6] concerns the target T5, Recombinant FcγRI with C-terminus Biotin (human, UniProt P12314 16-292, C-terminus Biotin).
T5 chain: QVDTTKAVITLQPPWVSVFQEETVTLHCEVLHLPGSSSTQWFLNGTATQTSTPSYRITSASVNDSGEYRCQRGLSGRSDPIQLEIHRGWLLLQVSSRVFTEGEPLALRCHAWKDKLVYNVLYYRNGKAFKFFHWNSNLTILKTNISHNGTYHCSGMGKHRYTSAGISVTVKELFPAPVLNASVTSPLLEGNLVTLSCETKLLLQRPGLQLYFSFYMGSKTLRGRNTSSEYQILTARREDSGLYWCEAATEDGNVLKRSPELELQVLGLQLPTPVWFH

The target in experiment [7] is T1, Recombinant FcγRIIa (H131) with ….
The target of experiment [8] is T2, Recombinant FcγRIIa (R131) with ….
Experiment [9] addresses T3, Recombinant FcγRIIIa (V158) with …. This is another data set of the same source.
Experiment [10] has as its target T5, Recombinant FcγRI with C-terminus Biotin.

T3 sequence (P08637 17-208 F176V): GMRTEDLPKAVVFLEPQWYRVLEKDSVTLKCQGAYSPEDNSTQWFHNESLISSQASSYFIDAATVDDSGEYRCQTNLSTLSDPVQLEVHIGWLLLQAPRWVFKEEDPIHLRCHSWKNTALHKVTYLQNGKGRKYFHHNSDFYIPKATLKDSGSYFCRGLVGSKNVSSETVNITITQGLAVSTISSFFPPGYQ
Sequence of Recombinant FcγRIIIa (F158) with C-terminus Biotin (P08637 17-208): as the sequence (P08637 17-208 F176V) above, with V160F counted along it

B1: Infliximab (antibody)
chain 1: EVKLEESGGGLVQPGGSMKLSCVASGFIFSNHWMNWVRQSPEKGLEWVAEIRSKSINSATHYAESVKGRFTISRDDSKSAVYLQMTDLRTEDTGVYYCSRNYYGSTYDYWGQGTTLTVSS
chain 2: DILLTQSPAILSVSPGERVSFSCRASQFVGSSIHWYQQRTNGSPRLLIKYASESMSGIPSRFSGSGSGTDFTLSINTVESEDIADYYCQQSHSWPFTFGSGTNLEVK
As to B1, the concentration for half-maximal inhibition (IC50) turned out to be 101 nM in experiment [1]; 244 nM in [2]; 394 nM in experiment [3]; 15.5 nM in experiment [4]; 2900 nM in experiment [5]; 0.06 nM in experiment [6].

B2: Panitumumab (antibody)
chain 1: QVQLQESGPGLVKPSETLSLTCTVSGGSVSSGDYYWTWIRQSPGKGLEWIGHIYYSGNTNYNPSLKSRLTISIDTSKTQFSLKLSSVTAADTAIYYCVRDRVTGAFDIWGQGTMVTVSS
chain 2: DIQMTQSPSSLSASVGDRVTITCQASQDISNYLNWYQQKPGKAPKLLIYDASNLETGVPSRFSGSGSGTDFTFTISSLQPEDIATYFCQHFDHLPLAFGGGTKVEIK
For B2, the results for the IC50 in [7] and in [8] were 137 nM and 1570 nM, respectively.

B3: Pembrolizumab (antibody)
chain 1: QVQLVQSGVEVKKPGASVKVSCKASGYTFTNYYMYWVRQAPGQGLEWMGGINPSNGGTNFNEKFKNRVTLTTDSSTTTAYMELKSLQFDDTAVYYCARRDYRFDMGFDYWGQGTTVTVSS
chain 2: EIVLTQSPATLSLSPGERATLSCRASKGVSTSGYSYLHWYQQKPGQAPRLLIYLASYLESGVPARFSGSGSGTDFTLTISSLEPEDFAVYYCQHSRDLPLTFGGGTKVEIK
For B3, the values for the half-inhibitory concentration (IC50) in experiment [9] and in experiment [10] were 1960 nM and 0.44 nM, respectively.
